One block for each binder: values may come before it.
How the values were obtained:
[1] = target: HSP70 (human HSP70; the antigen of the binning, humanization and variant binding assays) (human) (UniProt P0DMV8); experiment: BLI, anti-human Fc capture, antigen 100 nM
[2] = target: HSP70-GFP (full-length HSP70 fused to GFP) (human) (UniProt P0DMV8); experiment: cell-based or functional assay
HSP70-GFP (full-length HSP70 fused to GFP) (human), sequence (P0DMV8 whole entry, the tested form may be a part): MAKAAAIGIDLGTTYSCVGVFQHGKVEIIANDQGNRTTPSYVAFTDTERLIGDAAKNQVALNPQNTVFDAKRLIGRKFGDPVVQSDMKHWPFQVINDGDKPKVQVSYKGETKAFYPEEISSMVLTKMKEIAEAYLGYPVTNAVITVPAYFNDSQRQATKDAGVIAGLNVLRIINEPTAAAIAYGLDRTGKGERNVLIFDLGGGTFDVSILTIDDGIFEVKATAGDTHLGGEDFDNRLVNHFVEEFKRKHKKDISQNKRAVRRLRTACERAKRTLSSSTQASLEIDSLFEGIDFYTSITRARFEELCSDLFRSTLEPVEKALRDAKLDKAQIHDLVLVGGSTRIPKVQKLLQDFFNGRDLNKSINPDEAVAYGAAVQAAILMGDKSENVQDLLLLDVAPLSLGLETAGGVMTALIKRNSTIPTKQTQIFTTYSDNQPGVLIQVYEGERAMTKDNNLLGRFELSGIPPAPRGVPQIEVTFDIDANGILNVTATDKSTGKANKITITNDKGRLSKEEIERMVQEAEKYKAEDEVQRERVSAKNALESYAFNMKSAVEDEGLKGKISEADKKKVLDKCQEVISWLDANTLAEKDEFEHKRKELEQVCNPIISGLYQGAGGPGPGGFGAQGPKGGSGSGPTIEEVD

HSP70 (human HSP70; the antigen of the binning, humanization and variant binding assays) (human), sequence (P0DMV8 whole entry, change not shown, the tested form may be a part): as the sequence (P0DMV8 whole entry, the tested form may be a part) above

- % Diss [1]: -80.5%
- X = 610 [1]: 0.0256 nM
- X = 1495 [1]: 0.0462 nM
B1: h77A-1.32 (antibody, V domains shown)
VH: QIQLVQSGAEVKKPGASVKVSCKASGYTFTNYGMNWVRQAPGQGLEWMGWINTYTGEPRYADDFKGRFTFTTDTSTSTAYMELRSLRSDDTAVYFCARYDHDMDYWGQGTLVTVSS
VL: EIVLTQSPDSLAVSLGERATINCKSSQSLLNSGTRKNYLAWYQQKAGQSPKLLIYWTSTRESGVPDRFSGSGSGTDFTLTIDSLQAEDVAVYYCKQSYTLYTFGGGTKVEIK

- % live cells GFP positive, DC3.2 cells [2]: 78.3%
- % live cells GFP positive, MH-S cells [2]: 66%
B2: murine 77A in a murine IgG2a format (antibody, V domains shown)
VH: QIQLVQSGPELKKPGETVKISCKASGYTFTNYGMNWVKQAPGKGLKWMGWINTYTGEPTYADDFKGRFAFSLETSATTAYLQINNLKNEDTATYFCARYDHAMDYWGQGTSVTVSS
VL: DIVMSQSPSSLAVSAGEKVTMSCKSSQSLLNSGTRKNYLAWYQQKPGQSPKLLIYWTSTRESGVPDRFTGSGSGTDFTLTINSVQAEDLAVYYCKQSYTLYTFGGGTKLEIK

- % GFP positivity, DC3.2 cells [2]: 4.85%
- % GFP positivity, MH-S cells [2]: 16%
B3: murine 77A in a murine IgG2b format (antibody, V domains shown)
VH: B2 VH
VL: B2 VL
